This note sets out measurements from patent CN107022030A (GUANGDONG GUYING BIOTECHNOLOGY INDUSTRIAL RES INSTITUTE CO …, dated 2017).

For assay [1], the target named is 人甲胎蛋白(human alpha fetoprotein，hAFP) (human) (UniProt P02771). The assay is described as follows: ELISA titre of ascites antibody on hAFP.
Assay [2] addresses T1, 人血清白蛋白(human serum albumin，HSA) (human, UniProt P02768 25-609).
T1 construct: Used at 40 mg/ml as the cross-reaction antigen; also called HAS
The assay is described as follows: indirect ELISA, HSA as cross-reaction antigen. In general terms: ELISA stands for enzyme-linked immunosorbent assay.

Chain of UniProt P02771 (P02771 19-609): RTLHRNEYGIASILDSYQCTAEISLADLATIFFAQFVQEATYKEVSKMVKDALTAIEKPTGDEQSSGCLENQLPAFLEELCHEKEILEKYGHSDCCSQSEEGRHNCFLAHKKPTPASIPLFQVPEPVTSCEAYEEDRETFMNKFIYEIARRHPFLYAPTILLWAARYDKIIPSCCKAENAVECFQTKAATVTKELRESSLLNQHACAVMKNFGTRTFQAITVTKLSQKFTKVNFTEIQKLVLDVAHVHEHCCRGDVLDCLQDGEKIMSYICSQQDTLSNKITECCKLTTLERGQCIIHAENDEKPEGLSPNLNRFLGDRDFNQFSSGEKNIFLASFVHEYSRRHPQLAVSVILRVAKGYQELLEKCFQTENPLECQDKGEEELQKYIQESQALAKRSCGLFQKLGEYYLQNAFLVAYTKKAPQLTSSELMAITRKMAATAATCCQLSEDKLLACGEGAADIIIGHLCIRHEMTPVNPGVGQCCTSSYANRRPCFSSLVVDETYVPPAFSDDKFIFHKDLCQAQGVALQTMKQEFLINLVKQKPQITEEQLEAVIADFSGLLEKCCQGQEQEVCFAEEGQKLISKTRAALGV
T1 sequence (P02768 25-609): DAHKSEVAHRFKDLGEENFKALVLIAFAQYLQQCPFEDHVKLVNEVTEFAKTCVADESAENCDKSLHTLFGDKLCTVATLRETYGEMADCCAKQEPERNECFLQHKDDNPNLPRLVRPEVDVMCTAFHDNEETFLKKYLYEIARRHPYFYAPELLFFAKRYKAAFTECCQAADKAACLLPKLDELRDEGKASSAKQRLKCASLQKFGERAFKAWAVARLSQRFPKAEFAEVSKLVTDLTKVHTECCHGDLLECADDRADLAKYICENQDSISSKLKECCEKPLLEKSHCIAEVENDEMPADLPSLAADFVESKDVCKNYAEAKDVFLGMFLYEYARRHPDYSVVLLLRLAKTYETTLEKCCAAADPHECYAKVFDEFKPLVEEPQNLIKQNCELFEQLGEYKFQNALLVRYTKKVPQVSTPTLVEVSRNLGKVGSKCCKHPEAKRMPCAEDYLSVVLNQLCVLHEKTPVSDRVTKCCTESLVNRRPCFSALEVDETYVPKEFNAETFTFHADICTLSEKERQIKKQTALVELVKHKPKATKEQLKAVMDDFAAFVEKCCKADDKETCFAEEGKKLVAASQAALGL

B1: 单克隆抗体Ab4 (antibody, part only; not given: light chain variable region, constant regions, V domains shown, part only)
VH: VKLQQSGPELVKPGASVTLSCKASGYTFTSYYIHWVKQRPGQELEWIGWIYPGNVNTKYNEKFKGKATLTADKSSSTAYMQLSSLTSEDSAVYFCARCSGRLYYAMDYWGQGTTVTVSS
B1 showed a 腹水效价 in assay [1] of less than 3e+07.

B2: 单克隆抗体Ab3 (antibody, V domains shown)
VH: VKLQESGAELVKPGASVKLSCTASGFNIKDTYMHWVKQRPEQGLEWIGGIDPANGKTKFDPKFQGKATITADTSSNTAYLHLSRLTSDDTAVYYCVRGQVGGRGWFAYWGQGTTVTVSS
VL: DIQLTQSPSSLSASLGERVSLTCRASQEISGYLSWLQRKPDGTIKRLIYAASTLDSGVPKRFSGSRSGSDYSLTISSLESEDFADYYCLQYASYPYTFGGGTKL
notes: Mouse monoclonal IgG from hybridoma ascites, Protein G purified; HRP-labelled in the immunohistochemistry; also called Ab3-HRP
For the molecule B2, the binding result in assay [2] was “no binding (tested: 40mg/ml)”.
